The target in the assay is Notch1-Fc. Put plainly: competition ELISA: Dll4-Fc premixed with 50 ng Dll4 (E8)-AP on coated Notch1-Fc; reference Dll4-L1-Fc. (In general: An ELISA detects its analyte on a solid surface through an enzyme-linked reagent.)

B1: Dll4-L2-Fc (Fc fusion, part only; not given: linker, Fc, not shown: a dimerising Fc or GST)
chain, part: SGVFQLQLQEFINERGVLASGRPCEPGCRTFFRVCLKHFQAVVSPGPCTFGTVSTPVLGTNSFAVRDDSSGGGRNPLQLPFNFTWPGTFSLIIEAWHAPGDDLRPEALPPDALISKIAIQGSLAVGQNWLLDEQTSTLTRLRYSYRVICSDNYYGDNCSRLCKKRNDHFGHYVCQPDGNLSCLPGWTGEYCQQPICLSGCHEQNGYCSKPAECLCRPGWQGRLCNECIPHNGCRHGTCSTPWQCTCDEGWGGLFCDQDLNYCTHHSPCKNGATCSNSGQRSYTCTCRPGYTGVDCELELSECDSNPCRNGGSCKDQEDGYHCLCPPGYYGLHCEHSTLSCADSPCFNGGSCRERNQGANYACECPPNFTGSNCEKKVDRCTSNPCANGGQCLNRGP
The molecule B1 yielded a fold difference between L1 and L2 fusion proteins of 3 fold.

Source of the values: US20090035308A1.
